Residue numbers refer to the chain shown, from its start. Names may count otherwise. “Also recorded” adds a separate entry of the source.

The target in one series is 7β-HSDH (Collinsella aerofaciens, UniProt A4ECA9). In words: Photometric identification of 7β-HSDH activity (production example 1). The class given is biochemical, Collinsella aerofaciens ATCC 25986. To be noted: 0.1 mM test substance, potassium phosphate buffer 50 mM pH 8, in the presence of NADP+ or NADPH. As for the experimental part: For identification of 7β-HSDH activity, the activity was investigated by a photometric method. In a 1 ml cuvette, enzyme and 0.1 mM of test substance (UDCA) were mixed in potassium phosphate buffer (50 mM, pH8).

The target in series [1] is 7β-HSDH from Collinsella aerofaciens DSM 3979 (Collinsella aerofaciens, UniProt A4ECA9). The class given is biochemical.
Series [2] can be described thus: Kinetic constants of FDH (mutant D221G) at pH 6, 7 and 8. The class given is biochemical, Mycobacterium vaccae.
Substrate in series [3]: NC(=O)C1=CN([C@@H]2O[C@H](COP(=O)(O)OP(=O)(O)OC[C@H]3O[C@@H](n4cnc5c(N)ncnc54)[C@H](OP(=O)(O)O)[C@@H]3O)[C@@H](O)[C@H]2O)C=CC1
The experiment in a line: purified protein, by the assay type. To be noted: other: pH 8, 25° C.

Substrate in series [4]: NC(=O)c1ccc[n+]([C@@H]2O[C@H](COP(=O)([O-])OP(=O)(O)OC[C@H]3O[C@@H](n4cnc5c(N)ncnc54)[C@H](OP(=O)(O)O)[C@@H]3O)[C@@H](O)[C@H]2O)c1
In words: purified protein, by the assay type. To be noted: other: pH 8, 25° C.

Substrate in series [5]: C[C@H](CCC(=O)O)[C@H]1CC[C@H]2[C@@H]3C(=O)C[C@@H]4CC(=O)CC[C@]4(C)[C@H]3CC(=O)[C@]12C
In words: Enzyme-kinetic investigation of the 7β-HSDH mutants. It is filed as biochemical, Collinsella aerofaciens. The following applies: other: 0.5 mM NADH. From the text:
Altogether, the 7β-HSDH mutants G39D, G39D/R40L, G39D/R40I and G39D/R40V were produced. The G39D mutant is produced by Quickchange mutagenesis, and the other mutants are produced by the PCR method of Sanchis et al. (Sanchis J, Fernández L, Carballeira J D, Drone J, Gumulya Y, Höbenreich H, Kahakeaw D, Kille S, Lohmer R, Peyralans J J, Podtetenieff J, Prasad S, Soni P, Taglieber A, Wu S, Zilly F E, Reetz M T. Improved PCR method for the creation of saturation mutagenesis libraries in directed evolution: application to difficult-to-amplify templates. Appl Microbiol Biotechnol. 2008 November; 81(2): 387-97). The following primers were used for the mutagenesis, with the bases shown in italics coding in each case for the exchanged amino acid:
The mutants prepared are evaluated by means of enzyme-kinetic investigations, the results of which are shown as graphs in FIG. 11. […] The need to increase the cofactor concentration in the enzyme-kinetic investigation of the 7β-HSDH mutants is due to the increased semisaturation concentrations for the cofactor NADH in the mutants. From the plots of substrate concentration versus specific enzyme activity, the characteristic curves of Michaelis-Menten kinetics can be seen for the 7β-HSDH mutants, whereas the curve of Michaelis-Menten kinetics with substrate inhibition can be seen from the plot for the unmodified wild-type 7β-HSDH. Accordingly, the classical Michaelis-Menten model (equation 1) was used for evaluating the measurement series of the 7β-HSDH mutants and the Michaelis-Menten model with substrate inhibition was used for the measurement series of the unmodified wild-type 7β-HSDH (equation 2).
[formula] • EAx: specific enzyme activity, U mg^−1=μmol min^−1 mg^−1 • vmax: maximum specific enzyme activity, U mg^−1=μmol min^−1 mg^−1 • cS: substrate or cofactor concentration, mol L^−1 • Km: semisaturation concentration, mol L^−1
The following table gives enzyme-kinetic parameters of the unmodified wild-type 7β-HSDH and the mutants thereof with altered cofactor specificity. NADPH is used as cofactor for the wild type, whereas NADH is used as cofactor for the mutants.

The nature of series [6]: Photometric activity of 7β-HSDH variants with NADPH or NADH (production example 7). It is filed as biochemical, Collinsella aerofaciens. The following applies: for Specific activity NADH / Volumetric activity NADH: cofactor NADH; for Specific activity NADPH / Volumetric activity NADPH: cofactor NADPH.

`C[C@H](CCC(=O)O)[C@H]1CC[C@H]2[C@@H]3[C@@H](O)C[C@@H]4C[C@H](O)CC[C@]4(C)[C@H]3CC[C@]12C` [UDCA, Ursodeoxycholic acid]: at 7β-HSDH, the “activity of 7β-HSDH against the test substance” value (shortened to “activity of 7β-HSDH”) amounted to 60 U/ml. In series [1], the Vmax stood at 38.17 U/mg protein and the kcat is reported as 1179.39 1 μmol/(μmol × min).

For `C[C@H](CCC(=O)O)[C@H]1CC[C@H]2[C@@H]3[C@H](O)C[C@@H]4C[C@H](O)CC[C@]4(C)[C@H]3C[C@H](O)[C@]12C` [CA, Cholic acid], at 7β-HSDH, the “activity of 7β-HSDH” value is given as “no activity; also recorded: not detectable”.

As for `C[C@H](CCC(=O)O)[C@H]1CC[C@H]2[C@@H]3C(=O)C[C@@H]4C[C@H](O)CC[C@]4(C)[C@H]3CC[C@]12C` [7-Keto-LCA, 7-Keto-lithocholic acid], on 7β-HSDH, the “activity of 7β-HSDH” value amounted to 35 U/ml.

For the molecule `NC(=O)C1=CN([C@@H]2O[C@H](COP(=O)(O)OP(=O)(O)OC[C@H]3O[C@@H](n4cnc5c(N)ncnc54)[C@H](OP(=O)(O)O)[C@@H]3O)[C@@H](O)[C@H]2O)C=CC1` [NADPH], in series [1], the kcat is recorded as 1033.44 1 μmol/(μmol × min).

With `NC(=O)c1ccc[n+]([C@@H]2O[C@H](COP(=O)([O-])OP(=O)(O)OC[C@H]3O[C@@H](n4cnc5c(N)ncnc54)[C@H](OP(=O)(O)O)[C@@H]3O)[C@@H](O)[C@H]2O)c1` [NADP^+], the kcat in series [1] is 944.95 1 μmol/(μmol × min). The Km in series [1] (pH 8) came out at 5.32 µM.

B1: FDH: formate dehydrogenase from Mycobacterium vaccae N10, mutant D221G, utilizes both NAD+ and NADP+ (protein)
chain: MAKVLCVLYDDPVDGYPKTYARDDLPKIDHYPGGQILPTPKAIDFTPGQLLGSVSGELGLREYLESNGHTLVVTSDKDGPDSVFERELVDADVVISQPFWPAYLTPERIAKAKNLKLALTAGIGSDHVDLQSAIDRNVTVAEVTYCNSISVAEHVVMMILSLVRNYLPSHEWARKGGWNIADCVSHAYDLEAMHVGTVAAGRIGLAVLRRLAPFDVHLHYTGRHRLPESVEKELNLTWHATREDMYPVCDVVTLNCPLHPETEHMINDETLKLFKRGAYIVNTARGKLCDRDAVARALESGRLAGYAGDVWFPQPAPKDHPWRTMPYNGMTPHISGTTLTAQARYAAGTREILECFFEGRPIRDEYLIVQGGALAGTGAHSYSKGNATGGSEEAAKFKKAV
modifications: CDS (1)..(1203)
In the case of B1, the Specific activity in series [2] (pH 6, NAD+) worked out at 4.6 U × mg^−1; in series [2] (pH 6, NADP+) it was 1 U × mg^−1; in series [2] (pH 7, NAD+) it was 5.1 U × mg^−1; in series [2] (pH 7, NADP+), 1.2 U × mg^−1; in series [2] (pH 8, NAD+), 4.7 U × mg^−1; in series [2] (pH 8, NADP+), 1 U × mg^−1.

B2: 7β-HSDH from Collinsella aerofaciens DSM 3979 (ATCC 25986), wild type, SEQ ID NO:2 (Collinsella aerofaciens ATCC 25986) (protein)
chain: MNLREKYGEWGLILGATEGVGKAFCEKIAAGGMNVVMVGRREEKLNVLAGEIRETYGVETKVVRADFSQPGAAETVFAATEGLDMGFMSYVACLHSFGKIQDTPWEKHEAMINVNVVTFLKCFHHYMRIFAAQDRGAVINVSSMTGISSSPWNGQYGAGKAFILKMTEAVACECEGTGVDVEVITLGTTLTPSLLSNLPGGPQGEAVMKIALTPEECVDEAFEKLGKELSVIAGQRNKDSVHDWKANHTEDEYIRYMGSFYRD
B2: in series [3], the Km is 4.50 µM, the Vmax was found to be 33.4 µmol/min/mg and the kcat was 1033.44 μmol/(μmol × min). Moreover, in series [4], the Michaelis-Menten constant (Km) was found to be 5.32 µM, the Vmax was found to be 30.6 µmol/min/mg and the kcat is on record as 944.95 μmol/(μmol × min).

B3: Collinsella aerofaciens 7β-HSDH mutant G39D R40I, SEQ ID NO:39 (parent SEQ ID NO:2) (Collinsella aerofaciens ATCC 25986; G39D/R40I) (protein)
chain: B2 chain with G39D, R40I
notes: made in house
B3: in series [5], the Km amounted to 920 ± 170 µM and the Vmax was 4.64 µmol/min/mg.

B4: Collinsella aerofaciens 7β-HSDH mutant G39D R40V, SEQ ID NO:40 (parent SEQ ID NO:2) (Collinsella aerofaciens ATCC 25986; G39D/R40V) (protein)
chain: B2 chain with G39D, R40V
notes: made in house
As for B4, in series [5], the Michaelis constant (Km) was 880 ± 20 µM and the Vmax stood at 2.69 µmol/min/mg.

B5: Collinsella aerofaciens 7β-HSDH mutant G39D, SEQ ID NO:37 (parent SEQ ID NO:2) (Collinsella aerofaciens ATCC 25986; G39D) (protein)
chain: B2 chain with G39D
notes: made in house
In the case of B5, in series [6], the “Specific activity NADH” value is 0.1 U/mg, the “Volumetric activity NADH” value is listed as 2 U/ml, the “Specific activity NADPH” value amounted to 5.1 U/mg and the “Volumetric activity NADPH” value was found to be 119 U/ml. In series [5], the Michaelis constant (Km) was found to be 660 ± 120 µM and the Vmax was 2.9 µmol/min/mg.

B6: Collinsella aerofaciens 7β-HSDH mutant G39D R40L, SEQ ID NO:38 (parent SEQ ID NO:2) (Collinsella aerofaciens ATCC 25986; G39D/R40L) (protein)
chain: B2 chain with G39D, R40L
notes: made in house
As for B6, in series [5], the Michaelis-Menten constant (Km) turned out to be 560 ± 80 µM and the Vmax is 1.6 µmol/min/mg.

B7: G39D R40I: 7β-HSDH double mutant G39D/R40I, SEQ ID NO:39 (protein)
chain: B2 chain with G39D, R40I
On to B7, for which, in series [6], the “Specific activity NADH” value is reported as 0.8 U/mg, the “Volumetric activity NADH” value is reported as 21 U/ml, the “Specific activity NADPH” value is 0 U/mg and the “Volumetric activity NADPH” value was 0 U/ml.

The record behind these values is patent publication US11981935B2, “7β-hydroxysteroid dehydrogenase mutants and process for the preparation of ursodeoxycholic acid” (PharmaZell GmbH, priority 2010, dated 2024).
